We go through two molecules from patent US20200109390A1 (Chugai, published 2020).

The test has as its target T1, human blood coagulation factor IX (human, UniProt P00740 47-461, Gla (gamma-carboxyglutamate) residues in the GLA domain of native FIX); the twelve Glu of the GLA domain are at positions 53, 54, 61, 63, 66, 67, 72, 73, 76, 79, 82 and 86 of SEQ ID NO: 1 (positions …).
T1 construct: The FIX co-administered with the antibodies was Christmassin M I.V; antibody A was raised against human FIXa; also called FIX; human FIX
As to the kind of experiment: not described (statement in Example 4). How it is done: PK tests using mice were performed by the following method. Through the tail vein or under the dorsal skin of mice (C57BL/6J mouse, Charles River Japan), FIX (Christmassin M I.V.) was administered at a dose of 0.6 mg/kg by itself or simultaneously with 8 mg/kg of an anti-FIX antibody A or anti-FIX antibody B, in a single dose. Blood was collected five minutes, two hours, four hours, seven hours, one day, two days, seven days, 14 days, 21 days, and 28 days after the administration. The collected blood was immediately subjected to separation by centrifugation at 4° C. and 15,000 rpm for 15 minutes to obtain the plasma. The separated plasma was stored in a freezer set to −20° C. or lower until performing the measurements.
The concentration of FIX in mouse plasma was determined by ELISA. […] After stopping the reaction by adding a reaction-stopping solution (AssayPro), the 450-nm absorbance of the reaction solution in each well was measured using a microplate reader. The concentrations of FIX in mouse plasma were calculated from the absorbances of the calibration curve using SOFTmax PRO analysis software (Molecular Devices).

T1 sequence (P00740 47-461): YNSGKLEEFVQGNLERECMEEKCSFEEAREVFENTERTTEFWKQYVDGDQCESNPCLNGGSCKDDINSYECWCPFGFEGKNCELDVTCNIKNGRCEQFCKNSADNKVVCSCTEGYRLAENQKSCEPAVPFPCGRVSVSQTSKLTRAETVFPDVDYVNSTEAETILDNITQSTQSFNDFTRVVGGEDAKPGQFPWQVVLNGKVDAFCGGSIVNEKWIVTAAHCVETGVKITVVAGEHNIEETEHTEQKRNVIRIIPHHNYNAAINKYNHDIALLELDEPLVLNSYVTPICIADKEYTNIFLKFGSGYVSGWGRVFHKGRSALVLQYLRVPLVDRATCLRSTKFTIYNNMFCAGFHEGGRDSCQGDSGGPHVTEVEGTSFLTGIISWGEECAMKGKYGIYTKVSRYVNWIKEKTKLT

B1: anti-FIX antibody B (antibody, human IgG1, kappa, V domains shown)
VH: QVQLVQSGSELKKPGASVKVSCKASGYTFTNYGMNWVRQAPGQGLKWMGWINTRNGKSTYVDDFKGRFVFSLDSSVSTAYLQISSLKADDTAVYYCTREGNMDGYFPFTYWGQGTLVTVSS
VL: QIVLTQSPSSLSASVGDRVTITCRASSSVNYMHWYQQKPGKAPKPWIYATSNLASGVPSRFSGSGSGTDYTFTISSLQPEDIATYYCQQWSINPRTFGQGTKVEIKR
notes: expressed transiently in FS293 cells
With B1, the binding result was “binds”.

B2: anti-FIX antibody A (antibody, human IgG1, kappa, V domains shown)
VH: QVQLQQSGAELAKPGASVKLSCKASGYTFTSSWMHWIKQRPGQGLEWLGYINPSSGYTKYNRKFRDKATLTADKSSSTAYMQLTSLTYEDSAVYYCARGGNGYYFDYWGQGTTLTVSS
VL: DIVMTQSHKFMSTSVGDRVSITCKASQDVGTAVAWYQQKPGQSPKLLIYWASTRHTGVPDRFTGSRYGTDFTLTISNVQSEDLADYLCQQYSNYITFGGGTKLELKR
notes: Obtained by immunizing an animal with human FIXa
Turning to B2, the binding result is recorded as “binds”.
